Tests used:
Assay type in all cases: biochemical
Taq DNA polymerase [1] = target: T1, Taq DNA polymerase (Thermus aquaticus, UniProt P19821); assay: Reactivation of the modified Taq DNA polymerase by pre-incubation, activity measured at 50° C.
Description: The activity of modified Taq DNA polymerase was assayed as described in the Example 2. The enzyme was pre-incubated at different temperatures in the pre-heating buffer (see Example 2), its activity was measured at 50° C. in the reaction buffer of the following composition: 50 mM Tris (pH 8.4 at 25° C.), 10 mM KCl, 5 mM (NH4)2SO4 and 2 mM MgCl2. The activity of the modified DNA polymerase was normalized the activity of the unmodified one.

[2] = test system: CFTR gene or insulin gene, human genome DNA as template; assay: PCR specificity and efficiency, mixtures set up at room temperature (CFTR and insulin gene fragments)
Description: Sets of PCR reactions were carried out in the Mastercycle (Eppendorf). The reactions performed using 2 units of both the unmodified and the modified enzymes. Composition of the buffer used in the experiments with the modified Taq DNA polymerase was described in the Example 7. The unmodified Taq DNA was tested in the buffer of the following compositions: 75 mM Tris-HCl (pH 8.8 at 25° C.), 20 mM (NH4)SO4, 0.01% Tween20. Both buffers were supplemented with 2 mM MgCl2, 0.2 mM dNTP, 0.5 μm of each PCR primer and human DNA (100 ng/50 μl). For amplification of 950 by DNA fragment of the CFTR gene, the same set of PCR primers was used as described in the Example 8. A 400 bp fragment of the insulin gene was amplified with the following set of PCR primers: […]
The components of PCR were mixed at room temperature and the reactions were performed using the following cycling profiles: • 1. For the 950 bp amplicon: 95° C.—5 min; (95° C.—[…], 50° C.—0.5 min, 72° C.—1 min)—40 cycles; 72° C.—7 min. • 2. For the 400 bp amplicon: 95° C.—5 min; (95° C.—0.5 min, 65° C.—0.5 min, 72° C.—1 min)—40 cycles; 72° C.—7 min.
After completion of PCR, the samples were mixed with aliquots (10 μl) of the 6× MassRuller™ Loading Dye (Fermentas), and the samples were analyzed by gel electrophoresis in 1.7% agarose. The Gene Ruler™ 100 bp DNA Ladder Plus (Fermentas) was used for evaluation of the amplicon size. Electrophoresis was performed in the TBE buffer (89 mM Tris, 89 mM H3BO3, and 1 mM EDTA) at 5 V/cm for 75 min. After completion of electrophoresis, gels were stained with ethidium bromide (0.5 μg/ml). Then, gels were destained in MiliQ-quality water for 20 minutes. DNA bands were visualized under UV.

Taq DNA polymerase [3] = target: T1, Taq DNA polymerase; assay: 5′-3′ exonuclease activity: cleavage of 5′-labelled oligonucleotide duplexes at 37° C.; settings: 4 hours, with or without dNTPs, FIG. 9, part B
Description: The exonuclease activity was determined using the following labeled complementary oligonucleotides: [SEQ ID NO: 3] 5′-[…]-3′ and [SEQ ID NO: 4] 5′-[…]-3′. Equal amounts (10 units) of the unmodified enzyme and the modified enzyme were incubated with the oligonucleotide duplexes for 4 hours at 37° C. in 10 μl of reaction buffer. Activity of the unmodified Taq DNA polymerase was tested in the following buffer: 75 mM Tris-HCl (pH 8.8 at 25° C.), 20 mM (NH4)SO4, 0.01% Tween20, and 2 mM MgCl2, while the buffer composition to test the modified Taq DNA polymerase was the following: 20 mM Tris-HCl (pH 8.3 at 25° C.), 20 mM KCl, 5 mM (NH4)SO4, and 2 mM MgCl2. Both reaction mixtures were tested either in the presence or in the absence of dNTPs.
Reactions were terminated by addition of 5 μl of a “stop” solution (95% (v/v) formamide and 0.01% bromophenol blue). After heating at 95° C. for 2 minutes, the samples were cooled in ice, and then they were loaded onto 15% denaturing acrylamide gel (29:1 acrylamide/bisacrylamide). Electrophoresis was performed in 89 mM Tris-borate (pH8.3 at 37° C.) supplemented with 2 mM EDTA for one hour at ˜50 V/cm. After electrophoresis, the gels were fixed in 10% acetic acid and dried. The gels were analyzed using Cyclone Storage Phosphor System and OptiQuant™ Image Analysis Software.

T1 sequence (P19821 whole entry): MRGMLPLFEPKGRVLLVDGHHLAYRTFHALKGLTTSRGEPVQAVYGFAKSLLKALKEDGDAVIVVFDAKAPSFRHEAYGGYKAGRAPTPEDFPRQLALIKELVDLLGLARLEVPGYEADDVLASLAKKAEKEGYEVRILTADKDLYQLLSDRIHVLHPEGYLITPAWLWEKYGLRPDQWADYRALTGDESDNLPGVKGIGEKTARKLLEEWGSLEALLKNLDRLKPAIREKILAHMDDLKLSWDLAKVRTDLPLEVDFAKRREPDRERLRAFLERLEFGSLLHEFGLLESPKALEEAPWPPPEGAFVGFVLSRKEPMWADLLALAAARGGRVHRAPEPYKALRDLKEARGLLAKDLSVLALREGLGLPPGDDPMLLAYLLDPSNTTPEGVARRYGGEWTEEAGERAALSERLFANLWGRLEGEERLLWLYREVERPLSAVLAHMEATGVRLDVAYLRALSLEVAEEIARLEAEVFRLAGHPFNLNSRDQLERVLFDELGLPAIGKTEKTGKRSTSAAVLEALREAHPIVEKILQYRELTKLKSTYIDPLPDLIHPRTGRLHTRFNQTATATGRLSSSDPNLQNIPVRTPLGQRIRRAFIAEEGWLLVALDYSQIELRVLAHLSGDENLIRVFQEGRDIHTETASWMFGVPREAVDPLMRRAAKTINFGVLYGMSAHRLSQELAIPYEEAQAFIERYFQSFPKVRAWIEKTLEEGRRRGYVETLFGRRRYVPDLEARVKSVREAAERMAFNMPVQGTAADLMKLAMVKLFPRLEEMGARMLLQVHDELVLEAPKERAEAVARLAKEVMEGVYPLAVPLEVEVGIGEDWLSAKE

## Taq DNA polymerase modified with N-etoxycarbonyl-2,3-dimethylmaleinimide: Recombinant Taq DNA polymerase reversibly inactivated by reaction with N-ethoxycarbonyl-2,3-dimethylmaleinimide in aqueous solution (preferred molar ratio 1/110)
Taq DNA polymerase [1]; incubation time at 95° C. 0 min
  Activity at 50° C. (%): ~0%
Taq DNA polymerase [1]; incubation time at 95° C. 0.5 min, listed as modified Taq DNA polymerase
  Activity at 50° C. (%): ~60%
Taq DNA polymerase [1]; incubation time at 95° C. 0.5 min, listed as modified enzyme
  Activity at 50° C. (%): ~60%
Taq DNA polymerase [1]; incubation time at 95° C. 1 min, listed as modified Taq DNA polymerase
  Activity at 50° C. (%): ~90%
Taq DNA polymerase [1]; incubation time at 95° C. 1 min, listed as modified enzyme
  Activity at 50° C. (%): ~90%
Taq DNA polymerase [1]; incubation time at 95° C. 1.5 min
  Activity at 50° C. (%): ~90%
Taq DNA polymerase [1]; incubation time at 95° C. 2.0 min
  Activity at 50° C. (%): ~100%
Taq DNA polymerase [1]; incubation time at 95° C. 3.0 min
  Activity at 50° C. (%): ~100%
Taq DNA polymerase [1]; preheated at 90° C. for several minutes, FIG. 8
  reactivation by preheating at 90° C.: regained full activity
[2]; CFTR and insulin gene fragments, PCR set up at room temperature, FIG. 10
  yield of unspecific PCR byproducts versus unmodified DNA polymerase: lesser yield
[2]; insulin gene 400 bp fragment
  yield of the byproducts caused by the primer dimerization versus unmodified DNA polymerase: lower
  yield of the insulin amplicon versus unmodified DNA polymerase: higher yield
Taq DNA polymerase [3]
  5′-3′ exonuclease activity: practically devoid of exonuclease activity

From US9273304B2, “Inactivation method” (Thermo Fisher Scientific Baltics UAB, priority 2006, dated 2016)
